The source of these data is patent US20120201751A1.

Experiment [1] concerns the target Recombinant human CD44/Fc (R&D Systems, Minneapolis) (human) (UniProt P16070). In words: SPR (Biacore T100), recombinant human CD44/Fc amine-coupled to a CM5 chip, 1:1 interaction model; column head Kd (1/s).
For experiment [2] the target is unchanged. In words: SPR (Biacore T100), recombinant human CD44/Fc amine-coupled to a CM5 chip, 1:1 interaction model; column head Ka (1/Ms).
The target is the same in experiment [3]. In words: SPR (Biacore T100), rhCD44/Fc amine-coupled to CM5, antibody injected 0.67-667 nM, 1:1 model. (In general: In SPR one partner is held on a chip, and binding of the other changes the refractive index at the surface.)

B1: (hu)ARH460-16-2 variant HV1/KV1 (antibody, V domains shown)
VH: EVQLVESGGGLVQPGGSLRLSCAASGFDFSRYWMSWVRQAPGKGLVWVGEVNPDSTSINYTPSLKDRFTISRDNAKNTLYLQMNSLRAEDTAVYYCTRPNYYGSRYHYYAMDYWGQGTLVTVSS
VL: DIQMTQSPSSLSASVGDRVTITCRASQDINNYLNWYQQKPGKAPKLLIYYTSRLHSGVPSRFSGSGSGTDFTFTISSLQPEDIATYYCQQGSTLPFTFGQGTKLEIK
B1: the koff in experiment [1] is 0.000225 s⁻¹. The kon in experiment [2] worked out at 35400 M⁻¹ s⁻¹. In addition, the Kd in experiment [3] is 6.32 nM.

For orientation: koff means a measure of how fast the partners let go of each other. As usually defined, the kon is the rate constant with which the complex forms. A word on the Kd: it is the constant that tells how readily two partners part at equilibrium.
